The record followed here is PMC314469, “Protein Interaction Networks by Proteome Peptide Scanning” (PLoS Biology, 2004).

To fix the notation:
T1: Yfr024 SH3 (LSB3_YEAST), P43603
T1 chain: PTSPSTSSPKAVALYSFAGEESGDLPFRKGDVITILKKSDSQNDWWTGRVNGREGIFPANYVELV

T2: Yhr016c SH3 (YSC84_YEAST), P32793
T2 chain: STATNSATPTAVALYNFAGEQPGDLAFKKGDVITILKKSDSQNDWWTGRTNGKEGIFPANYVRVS

T3: Rvs167 SH3 (RV167_YEAST), P39743
T3 chain: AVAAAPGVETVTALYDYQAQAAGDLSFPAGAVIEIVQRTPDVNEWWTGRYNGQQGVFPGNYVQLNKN

T4: Myo5 SH3 (MYO5_YEAST), Q04439
T4 chain: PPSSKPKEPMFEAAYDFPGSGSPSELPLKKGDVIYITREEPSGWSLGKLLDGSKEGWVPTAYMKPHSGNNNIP

T5: Boi1 SH3 (BOI1_YEAST), P38041
T5 chain: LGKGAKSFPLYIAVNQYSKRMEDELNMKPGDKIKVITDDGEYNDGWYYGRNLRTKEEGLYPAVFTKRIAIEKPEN

T6: Boi2 SH3 (BOI2_YEAST), P39969
T6 chain: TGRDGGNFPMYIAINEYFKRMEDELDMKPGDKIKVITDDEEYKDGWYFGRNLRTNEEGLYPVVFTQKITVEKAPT

Sho1 SH3 (SHO1_YEAST), P40073, sequence (P40073 295-366): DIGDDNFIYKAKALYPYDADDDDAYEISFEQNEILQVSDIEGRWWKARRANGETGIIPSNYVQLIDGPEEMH

The first assay concerns the target T1, Yfr024 SH3 (LSB3_YEAST), P43603. Briefly: SPOT array.
For the molecule QPPDRNLPSHPSSN [YGR143W 154-167], the normalised SPOT signal, Boehringer light units (BLU); mean over the file's lines of this peptide worked out at 48.8.
Molecule QSINRSIPSAPYGA [YBL081W 84-97] had a normalised SPOT signal, Boehringer light units (BLU); mean over the file's lines of this peptide of 178.
Still for that read-out and setting: the figure for QFALKNTPITPGSS [YGR061C 462-475] is 66.9.
On the same count and under the same terms, the figure for QLQEKLSPDLPDEE [YGL173C 401-414] is 11.2; for QHKPKVKPSKPEAK [YHL007C 236-249] it is 12.8; for QSKTKPLPVEPASP [YCR030C 484-497] it is 64.3.
Molecule QSEEKEKPKGPMAV [YIL122W 8-21] had a normalised SPOT signal, Boehringer light units (BLU); mean over the file's lines of this peptide of 109.

A further assay concerns the target T2, Yhr016c SH3 (YSC84_YEAST), P32793. The assay can be described thus: SPOT array.
In the case of QPPDRNLPSHPSSN [YGR143W 154-167], the normalised SPOT signal, Boehringer light units (BLU); mean over the file's lines of this peptide was found to be 19.4.
Molecule QSINRSIPSAPYGA [YBL081W 84-97] yielded a normalised SPOT signal, Boehringer light units (BLU); mean over the file's lines of this peptide of 42.2.
On the same count and under the same terms, the same measure for QFALKNTPITPGSS [YGR061C 462-475]: 33.6; for QLQEKLSPDLPDEE [YGL173C 401-414]: 16.4.
Turning to QHKPKVKPSKPEAK [YHL007C 236-249], the normalised SPOT signal, Boehringer light units (BLU); mean over the file's lines of this peptide was found to be 9.7.
Still for that read-out and setting: the same measure for QSKTKPLPVEPASP [YCR030C 484-497]: 65.4; for QSEEKEKPKGPMAV [YIL122W 8-21]: 18.1.

The target in another assay is T3, Rvs167 SH3 (RV167_YEAST), P39743. The assay can be described thus: SPOT array.
Take QPPDRNLPSHPSSN [YGR143W 154-167]: the normalised SPOT signal, Boehringer light units (BLU); mean over the file's lines of this peptide worked out at 48.2.
Still for that read-out and setting: the same measure for QSINRSIPSAPYGA [YBL081W 84-97]: 89; for QFALKNTPITPGSS [YGR061C 462-475]: 79.8.
Still for that read-out and setting: the figure for QLQEKLSPDLPDEE [YGL173C 401-414] is 59.4; for QHKPKVKPSKPEAK [YHL007C 236-249] it is 70.6; for QSKTKPLPVEPASP [YCR030C 484-497] it is 90.1.
Still for that read-out and setting: the figure for QSEEKEKPKGPMAV [YIL122W 8-21] is 20.6.

Another assay has as its target T4, Myo5 SH3 (MYO5_YEAST), Q04439. Briefly: SPOT array.
QPPDRNLPSHPSSN [YGR143W 154-167] returned a normalised SPOT signal, Boehringer light units (BLU); mean over the file's lines of this peptide of 156.
Still for that read-out and setting: the same measure for QSINRSIPSAPYGA [YBL081W 84-97]: 208; for QFALKNTPITPGSS [YGR061C 462-475]: 111; for QLQEKLSPDLPDEE [YGL173C 401-414]: 216.
QHKPKVKPSKPEAK [YHL007C 236-249] displayed a normalised SPOT signal, Boehringer light units (BLU); mean over the file's lines of this peptide of 956.
Still for that read-out and setting: the figure for QSKTKPLPVEPASP [YCR030C 484-497] is 122.
The same measure, in the same setting: the same measure for QSEEKEKPKGPMAV [YIL122W 8-21]: 197.

Another assay has as its target Sho1 SH3 (SHO1_YEAST), P40073. The assay can be described thus: SPOT array.
QPPDRNLPSHPSSN [YGR143W 154-167]: the normalised SPOT signal, Boehringer light units (BLU); mean over the file's lines of this peptide stood at 78.5.
In turn, QSINRSIPSAPYGA [YBL081W 84-97] gave a normalised SPOT signal, Boehringer light units (BLU); mean over the file's lines of this peptide of 44.4.
On the same count and under the same terms, the same measure for QFALKNTPITPGSS [YGR061C 462-475]: 36.4; for QLQEKLSPDLPDEE [YGL173C 401-414]: 27.1.
The same measure, in the same setting: the figure for QHKPKVKPSKPEAK [YHL007C 236-249] is 88.9; for QSKTKPLPVEPASP [YCR030C 484-497] it is 9780; for QSEEKEKPKGPMAV [YIL122W 8-21] it is 36.1.

A further assay concerns the target T5, Boi1 SH3 (BOI1_YEAST), P38041. The assay can be described thus: SPOT array.
Turning to QPPDRNLPSHPSSN [YGR143W 154-167], the normalised SPOT signal, Boehringer light units (BLU); mean over the file's lines of this peptide was 19.4.
Still for that read-out and setting: the figure for QSINRSIPSAPYGA [YBL081W 84-97] is 37.4.
QFALKNTPITPGSS [YGR061C 462-475] displayed a normalised SPOT signal, Boehringer light units (BLU); mean over the file's lines of this peptide of 142.
Consider QLQEKLSPDLPDEE [YGL173C 401-414], for which the normalised SPOT signal, Boehringer light units (BLU); mean over the file's lines of this peptide amounted to 49.4.
The same measure, in the same setting: the same measure for QHKPKVKPSKPEAK [YHL007C 236-249]: 2560; for QSKTKPLPVEPASP [YCR030C 484-497]: 80.3.
Still for that read-out and setting: the figure for QSEEKEKPKGPMAV [YIL122W 8-21] is 88.1.

A further assay addresses T6, Boi2 SH3 (BOI2_YEAST), P39969. Briefly: SPOT array.
Take QPPDRNLPSHPSSN [YGR143W 154-167]: the normalised SPOT signal, Boehringer light units (BLU); mean over the file's lines of this peptide was determined as 13.7.
For the molecule QSINRSIPSAPYGA [YBL081W 84-97], the normalised SPOT signal, Boehringer light units (BLU); mean over the file's lines of this peptide amounted to 122.
Molecule QFALKNTPITPGSS [YGR061C 462-475] registered a normalised SPOT signal, Boehringer light units (BLU); mean over the file's lines of this peptide of 0.
Same read-out and setting: the same measure for QLQEKLSPDLPDEE [YGL173C 401-414]: 27.9.
In the case of QHKPKVKPSKPEAK [YHL007C 236-249], the normalised SPOT signal, Boehringer light units (BLU); mean over the file's lines of this peptide is 40.3.
With QSKTKPLPVEPASP [YCR030C 484-497], the normalised SPOT signal, Boehringer light units (BLU); mean over the file's lines of this peptide was determined as 5.9.
In the case of QSEEKEKPKGPMAV [YIL122W 8-21], the normalised SPOT signal, Boehringer light units (BLU); mean over the file's lines of this peptide is 16.6.
